Results taken from patent US7423115B2, “ARTS C-terminus fragments and mimetics thereof” (SimeTRA Pharm Ltd, priority 2005, dated 2008).

Tests used:
[1] = molecular target: T1, Bir3 domain of XIAP protein (Homo sapiens, UniProt P98170); test: Co-immunoprecipitation of myc-tagged ARTS C-terminus with GST-Bir3 on glutathione beads in transfected, staurosporine-treated COS-7 cells; assay type: binding; details: COS-7 cells co-transfected, 1.25 μM staurosporine for 1 hr, Western blot with anti-ARTS C-terminus antibody
T1 construct: vectors expressing either the Bir3 domain of XIAP protein fused to GST; expressed in transfected cells; host or cells: COS-7
Description: COS-7 cells were transfected with 2.5 μg each of vectors expressing either the Bir3 domain of XIAP protein fused to GST or the GST alone, together with the myc-tagged ARTS C-terminus or myc-ARTS alone. After 40 hr, cells were exposed to 1.25 μM staurosporine for 1 hr and then washed in phosphate-buffered saline (PBS), scraped off the dish, pelleted, resuspended in 20 μL lysis buffer (150 mM NaCl, 50 mM Tris-HCl (pH 8), 1% NP-40, 0.5% deoxycholate acid, protease inhibitors (Mini Complete®, Roche Applied Science, Indianapolis, Ind.), and incubated on ice for 20 min.
Lysis buffer was added to lysate containing 400 mcg total protein, to a final volume of 1 ml. 100 mcL of 20% glutathione beads was added, and the mixture was rotated at 7.5° C. overnight. Beads were centrifuged at 400×g for 2 min and washed 3 times in 1 ml RIPA buffer (0.1% SDS, 1% NP-40, 0.5% deoxycholate acid, 150 mM NaCl, 50 mM Tris-HCl (pH 8), protease inhibitors). The pellet was boiled for 5 min in an additional 25 mcL RIPA buffer and 10 mcL 4× loading buffer, then the sample was electrophoresed on an SDS poly-acrylamide gel, transferred to PVDF membrane, and subjected to Western blot using monoclonal antibody directed against the ARTS C-terminus. Blots were developed with the West Pico kit (Pierce Biotechnology, Rockford, Ill.).

cells = test: Induction of apoptosis by the ARTS C terminus; assay type: cell-based
Description: Cells were incubated for 24 hours with no peptide (negative control) or with 100 micromolar (mcM) peptides corresponding to residues 1-9 (“pep1”), 10-18 (“pep2”), or 19-27 (“pep3”) of the ARTS C-terminus Apoptotic cells were detected using DAPI staining or TUNEL. For TUNEL assays, the cells were fixed and permeabilized. Apoptosis levels were determined using the TUNEL In situ™ cell death detection TMR kit (Roche) according to the manufacturer's protocol. All samples were coded, and experiments were performed in a blind manner.

T1 sequence (P98170 265-330 limits assumed): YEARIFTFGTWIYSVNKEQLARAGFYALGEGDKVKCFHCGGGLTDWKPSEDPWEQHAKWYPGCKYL

Interaction with GST-Bir3 domain of XIAP (co-precipitation with glutathione beads) [1]: co-precipitated
Sequence: YGPSLRLLAPPGAVKGTGQEHQGQGCH [ARTS C terminus]
Induction of apoptosis (cells): sufficient for induction of apoptosis
